Measurements as given in publication PMC2978023 (Journal of immunology (Baltimore, Md. : 1950), 2008).

B1: Fas ligand: promotes PMN death via interaction with its receptor on the cell surface (protein, UniProt P48023 130-281, looked up)
Tumor necrosis factor ligand …: QIGHPSPPPEKKELRKVAHLTGKSNSRSMPLEWEDTYGIVLLSGVKYKKGGLVINETGLYFVYSKVYFRGQSCNNLPLSHKVYMRNSKYPQDLVMMEGKMMSYCTTGQMWARSSYLGAVFNLTSADHLYVNVSELSLVNFEESQTFFGLYKL
B2: plasmin (protein, UniProt P00747 20-580; P00747 581-810, looked up)
Plasmin heavy chain A: EPLDDYVNTQGASLFSVTKKQLGAGSIEECAAKCEEDEEFTCRAFQYHSKEQQCVIMAENRKSSIIIRMRDVVLFEKKVYLSECKTGNGKNYRGTMSKTKNGITCQKWSSTSPHRPRFSPATHPSEGLEENYCRNPDNDPQGPWCYTTDPEKRYDYCDILECEEECMHCSGENYDGKISKTMSGLECQAWDSQSPHAHGYIPSKFPNKNLKKNYCRNPDRELRPWCFTTDPNKRWELCDIPRCTTPPPSSGPTYQCLKGTGENYRGNVAVTVSGHTCQHWSAQTPHTHNRTPENFPCKNLDENYCRNPDGKRAPWCHTTNSQVRWEYCKIPSCDSSPVSTEQLAPTAPPELTPVVQDCYHGDGQSYRGTSSTTTTGKKCQSWSSMTPHRHQKTPENYPNAGLTMNYCRNPDADKGPWCFTTDPSVRWEYCNLKKCSGTEASVVAPPPVVLLPDVETPSEEDCMFGNGKGYRGKRATTVTGTPCQDWAAQEPHRHSIFTPETNPRAGLEKNYCRNPDGDVGGPWCYTTNPRKLYDYCDVPQCAAPSFDCGKPQVEPKKCPGR
Plasmin light chain B: VVGGCVAHPHSWPWQVSLRTRFGMHFCGGTLISPEWVLTAAHCLEKSPRPSSYKVILGAHQEVNLEPHVQEIEVSRLFLEPTRKDIALLKLSSPAVITDKVIPACLPSPNYVVADRTECFITGWGETQGTFGAGLLKEAQLPVIENKVCNRYEFLNGRVQSTELCAGHLAGGTDSCQGDSGGPLVCFEKDKYILQGVTSWGLGCARPNKPGVYVRVSRFVTWIEGVMRNN
modifications: Plasmin

Legend:
PMN = conditions: cited from earlier work
human PMNs = conditions: PMN; data not shown
monocytes = conditions: PAR-1-dependent; ref [29]; cited from earlier work

| Molecule | effect on PMN death (PMN) | prosurvival/cytoprotective effect on PMN (in words) (human PMNs) | effect on TNF-α-induced apoptosis in monocytes (monocytes) |
| --- | --- | --- | --- |
| B1 | promote PMN death | – | – |
| B2 | – | did not exert a cytoprotective function | inhibits TNF-α-induced apoptosis in monocytes |
